Among the data in paper PMC10760395 (2023) are Kd values, retold here.

Usually Kd stands for the free concentration of one partner at which half of the binding sites on the other are occupied at equilibrium, for simple one-to-one binding. A lower Kd goes with higher affinity.

B1: xiRB49-P125T (antibody, V domains shown)
VH: QVQLQQPGAALVKPGASVKLSCKASGYTFISYWMLWVKQRPGRGLEWIGRIDPDSGGTKYNEKFKSKATLTVDKSSSTAYMQLSSLTSEDSAVYYCAREGDYAWFAYWGQGTLVTVSA
VL: DVLMTQTPLSLPVSLGDQASISCRSSQSIVHSNGNTYLEWYLQKPGQSPKLLIYKVSNRFSGVPDRFSGSGSGTDFTLKISRVEAEDLGVYYCFQGSHVPWTFGGGTKLEIK
B2: Rendomab B49 (RB49), murine mAb purified from hybridoma (antibody, V domains shown)
VH: QVQLQQPGAALVKPGASVKLSCKASGYTFISYWMLWVKQRPGRGLEWIGRIDPDSGGTKYNEKFKSKATLTVDKSSSTAYMQLSSLTSEDSAVYYCAREGDYAWFAYWGQGTLVPVSA
VL: DVLMTQTPLSLPVSLGDQASISCRSSQSIVHSNGNTYLEWYLQKPGQSPKLLIYKVSNRFSGVPDRFSGSGSGTDFTLKISRVEAEDLGVYYCFQGSHVPWTFGGGTKLEIK
B3: recombinant RB49 (reRB49) (antibody, V domains shown)
VH: QVQLQQPGAALVKPGASVKLSCKASGYTFISYWMLWVKQRPGRGLEWIGRIDPDSGGTKYNEKFKSKATLTVDKSSSTAYMQLSSLTSEDSAVYYCAREGDYAWFAYWGQGTLVPVSA
VL: DVLMTQTPLSLPVSLGDQASISCRSSQSIVHSNGNTYLEWYLQKPGQSPKLLIYKVSNRFSGVPDRFSGSGSGTDFTLKISRVEAEDLGVYYCFQGSHVPWTFGGGTKLEIK

Several values for one entry are separate records, joined by “and”; a condition that tells them apart may be missing. Equal entries are not always repeated.

The assay has as its target T1, endothelin B receptor (ETB) (UniProt P24530 27-442).
T1 chain: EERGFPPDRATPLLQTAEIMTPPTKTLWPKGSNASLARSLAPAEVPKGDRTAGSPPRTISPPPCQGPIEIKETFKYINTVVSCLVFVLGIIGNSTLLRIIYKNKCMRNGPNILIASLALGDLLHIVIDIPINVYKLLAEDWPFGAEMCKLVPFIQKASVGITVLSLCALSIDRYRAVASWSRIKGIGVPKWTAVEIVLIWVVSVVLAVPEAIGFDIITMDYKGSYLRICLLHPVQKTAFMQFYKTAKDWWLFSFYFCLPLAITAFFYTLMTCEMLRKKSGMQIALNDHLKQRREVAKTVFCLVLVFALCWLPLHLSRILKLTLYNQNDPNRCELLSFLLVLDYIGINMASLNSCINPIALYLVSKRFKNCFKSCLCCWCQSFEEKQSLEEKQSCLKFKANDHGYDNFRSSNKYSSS
Put plainly: FACS. (Flow cytometry measures light scatter and fluorescence of single cells or particles in a stream.)
For B1, the Kd came to 6 nM.
The same measure for B2: 4.19 nM and 3.5 nM; for B3: 3.04 nM.
